Source: the nanobody polyreactivity screen of Harvey et al. (2022)

Experiment: yeast display, Sf9 membrane polyspecificity reagent, FACS + sequencing; frameworks hold sequencing errors
Method in brief: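 In a synthetic yeast display library (Saccharomyces cerevisiae BJ5465), nanobody expression was induced with galactose for 36–48 hours. FACS gates were set low and high (top ~1%) using anti-HA fluorescence for expression and streptavidin fluorescence for binding of the Sf9 membrane reagent. Each polyreactivity label is drawn from the gate of origin.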

Row | Sequence | polyreactivity (PSR sort gate)
1 | QVQLVESGGGLVQAGGSLRLSCAASGRTFFHYAMGWYRQAPGKERELVAGISSGGRTKYADSVKGRFTISRDNAKNTVYLQMNSLKPEDTAVYYCAASYIVWLTRGAPRKRFDYWGQGTQVTVSS | high polyreactivity
2 | QVQLVESGGGLVQAGGSLRLSCAASGRTFPLNAMGWFRQAPGKERELVAAITWSGGRTYYADSVKGRFTISRDNAKNTVYLQMNSLKPEDTAVYYCAAKRTTWKIQSGYDYWGQGTQVTVSS | low polyreactivity
3 | QVQLVESGGGLVQAGGSLRLSCAASGRIFYAYAMGWYRQAPGTERELVAAISSGGSTKYADSVKGRFTISRDNAKNTVYLQMNSLKPEDTAVYYCNADATAQSFGSLFDYWGLGTQVTVSS | low polyreactivity
4 | QVQLVESGGGLVQAGGSLRLSCAASGRIFFYNAMGWYRQAHGKERELVAAISARGDRTYYADSVKGRFTISRDNAKNTVYLQMNSLKPEDTAVYYCAADYYNYRYDYWGQGTQVTVSS | high polyreactivity
5 | QVQLVESGGGLVQAGGSLRLSCAASGSNFLRNAMGWYRQAPGKERELVAAIRWNAGSTYYADSVKGRFTISRDNAKNTVYLQMNSLKPEDTAVYFCAADGYYGRGYWIRTLKFDYWGQGTQVTVSS | high polyreactivity
6 | QVQLVESGGGLVQAGGSLRLSCAASGFTFYGNSMGWYRQATGKERELVAAITSGGSTYYADSVKGRFTISRDNAKNNVYLQMNSLKPEDTAVYYCAAVNGWRRVKRFDYWGQGTQVTVSS | high polyreactivity
7 | QVQLVESGGGLVQAGGSLRLSCAASGFIFRGNAMGWYRQAPGKERELVAAISVRGGRTYYADSVKGRFTISRDNAKNTVYLQMNSLKPEDTAVYYCAADLYNRGRGSSQSYRTGYDYWGQGTQVTVSS | high polyreactivity
8 | QEQLQESGGGLVQAGGSLRLSCAASGTITVLYKMGWFRQAPGKEREFVASINYGTSTYYADSVKGRFTVSRDSAKNTVYLQMNSLKPEDTAVYYCAAAYRWQDVYRYWGQGTQVTVSS | low polyreactivity
9 | QVQLVESGGGLVQAGGSLRLSCAASGSTFVHYDMGWYRQAPGKERELVAGSTTGGSTNYADSVKGRFTISRDNAKNTVYLQMNSLKPEDTAVYYCNADSYPNLVPDYLYYWYEYWGQGTQVTVSS | low polyreactivity
10 | QVQVVESGGGLVQAGGSLRLSCAASGRTFRDNAMGWYRQAPGNERELVAAISRSGGRTYYADSVKGRCTISRDNAKNTVYLQMNSLKPEDTAVYYCAAYYYTAGDSSARYDYWGQGTQVTVSS | high polyreactivity
11 | QVQLVESRGCLVQAGGSHRLSCAASGSISDVNPMGWYRQARGNERELFAAMTSRRGGTNYADSVKGRFTISRDYAKNTVYLQMNSLNPEDTAVYYCAVYVSTKASKQGYGPGDYWGQGTQVTVSS | low polyreactivity
12 | QVQLVDSGGGLVQAGGSLRLSCAASGSTFTYYAMGWYRPAPGKERELVASITTSGGDTNYADSVKGRFTISRDNAKKTVYLQRNSQKPEDTPLYYCNTTTDQHYGYCAAADADRKYDYWGQGTQVTVSS | low polyreactivity
13 | QLQLVESGGGLVQAGGSLRLSCAASGNIFNYYAMGWYRQATGKERELVAAIRSGARTSYADSVKGRFTISRDNAKNTVYLQMNSLKPEDTAVYYCAASRFRWVQRDDYWGQGTQVTVSS | high polyreactivity
14 | QVQLVESGGGLVQAGGSLRLSCAASGRTFYSNAMGWYRQAPGKERELVAAISYNDGSTYYADSVKGRFTISRDNAKNTVYLQMNSLKPEDTAVYYCNADVGAWAWYTRYDYWGQGTQVTVSS | low polyreactivity
15 | QVQLVESGGGLVQAGGSLRLSCAASGRIFLWYAMGWYRQAPGKERELVAAIWRGGSTYYADSVKGRFTISRDNAKNTVYLLMNSLKPEDTAVYYCAAEDVYFGYDYWGQGTQVTVSS | low polyreactivity
16 | QVQLVESGGGLVQAGGSLRLSCAASGSIFDNYAMGCYRQAPRKERELVAAINFSDGDTYYGDSVKGRFTISRDNAKNTVYLQMNSLKPEDTAVYYCAAEVWYPPEYYDEYDYWGQGTQVTVSS | low polyreactivity
17 | QVQLVESGGGLVQAGGSLRLSFAASGRTFYYYASRWYRQAPGKERELVARIRSGGSTNYADSVKGRFTISRDNAKNTFYLQMNSLKPEDTAVYYCNALGAKGYVKGFDYRGQGTQVTVSS | low polyreactivity
18 | QVQLLESGGGLVQAGGSLRLSCASSGRTFLTNAMGWYRQAPGKERELVAVITDGDTTYADSVKGRFTISRDNAKNTVYLLMNSLKPEDSAVYYCAADENYWSAGYDSWGLGTQVTVSS | low polyreactivity
19 | QVQLVESGGGLVQAGGSLRLSCAASGTTFTFNAMGWYRQAPGKEREFVAAITASGGRTYYADSVKGRFTISRDNAKNTVYLQMNSLKPEDTAVYYCAAHACLLGPGDFNYWGQGTQVTVSS | low polyreactivity
20 | QVQLVESGGGLVQAGGSLRLSCAASGITFDDYVMGWYRQAPGKERELVAAITRSGGRTYYADSVKGRFTISRDNAKNTVYLQMNSLKPEDTAVYYCAARHRDNRFDYWGQGTQVTVSS | high polyreactivity
21 | QVQLEESGGGLVQAGGSLRLICAASGGIFRYYAMGWSRQAPGKERELVAAITQSGARTYYADSVKGRFTISRDNAKNTVYLQMNSMKPEDTAVYYCAADRTGSRYNSWGQGTQVTVSS | high polyreactivity
22 | QVQLVESGGGLVQAGGSLRLSCAASVGTFSPNTMGWYRQAPGKERELVAAISSSGSTSYADSVKGRFTISRDNAKNTVYLQMNSLKPEDTAGYFCNADDTISYYASGFDNYDYWGQGTQVTVSS | low polyreactivity

Row | Sequence | polyreactivity (PSR sort gate)
23 | QVQLVESGGGLVQAGGSHRLSCAASGSTFRYYPMGWYRQAPGKERELVARITSRAGRTYYADSVKGRFTISRDNAKNTVYLQMNSVKPEDTAVYYCNANRFRRYDWGQGTQVTVSS | high polyreactivity
24 | QVQLVESGGGLVQAGGSLRLSCAPSGGTFVSYVMGWYRQAPGKERELVAAISVSGGRTYYADSVKGRFTISRDNAKNTVYLQMNSLKPEDTAVYYCAADSVVVGSPGNDYWGQGTQVTVSS | high polyreactivity
25 | QHQLVESGGGLVQAGGSLRLSCAASGSIFWRYVMGWYRPAPGKERELVAAISSGGGITYYADSVTGRFTISRDTAKNTLYLQMNSLKPEDTAVYYCAAYGSLSPKYGYWGQGTQVNVSS | high polyreactivity
26 | QVQLVETGGGLVQAGGSLRLSCAASGFTIQRYAMGWYRQAPGKEREFVAAITSGGSTYYADSVKGRFTISRDNAKNTVYLQMNSLKPEDTAVYYCATRAVWSSWGRRYDSWGQGTQVTVSS | high polyreactivity
27 | QVQLVESGGGLVQAGGSLRLSCAASGIIFYHYALGWYRPAPGKERELVAAISRRGGTTYYADSVKGRFTISRDNAKNTVYLQMNSLKPEDTAVYYCAADYGSYGLYRGYYYWGQGTQVTVSS | high polyreactivity
28 | QVQLVESGGGLVQAGGSLRLSCAASGFIFSLYAMGWYRQAPGKERELVAAINWNGGRTYYADSVKGRFTISRDNAKNTVYLQMNSLKPEDTAVYYCAKLGYLGLDYWGQGTQVTVSS | high polyreactivity
29 | QVQLVESGGGLVQAGGSLRLSCAASGYNFYGYAMGWYRLAPGKERELVAAITVRGGSTYYADSVKGRFTISRDNAKNTVYLQMNCQKPEETAVYYCAAAPQFTFGVGYWGQGTQVTVSS | low polyreactivity
30 | QVQLVESGGGLVQAGGSLRLSCAASGRTFGLNAMGWYRQAPGKERELVAAISSSGGSTYYADSVKGRFTISRDNAKNTVYLQMNSLKPEDTAVYYSAKVLYLYGTAYYYWGQGTEVTVSS | high polyreactivity
31 | QVQLVETGGGLVQAGGSLRLSCAASGSTFYHNAMGWYRQAPGKERELVAAISIGGGRTYYADSVKGRFTISRDNAKNTVYLQMNSLKPEDTAVYYCAAGSPAVYGRGFNYWGQGTQVTVSS | low polyreactivity
32 | QVQLVESGGGLVQAGGSLRLSCAASGFIFGYYAMGWYRQAPGKERELVAGISWGGARTYYADSVKGRFTISRDNAKNTVYLQMNSLKPEDTAVYYCAATHYGHSISYWFDYWGQGTQVTVSS | high polyreactivity
33 | QVHLVESGGGLVQAGGSLRISFAASGRTFPYYDMGWYRQAPGKERELVAAINSGGRTNYADSVKGRFTISRDNAKNTVYLQLNSLKPEDTAVYYCTKRGHPSRLGYYYWGLGTQVTVSS | low polyreactivity
34 | QVQLVESGGGLVQAGGSLRLSCAASGFIFSSNAMGWYRQAPGKERELVAAITSSGGGTYYADSVKGRFTISRDNAKNTVYLQMNSLKPEDTAVYYCNAAYKYAIPSYGYWGQGTQVTVSS | low polyreactivity
35 | QDQLVESGGGLVQAGGSLRLSCAASGGTFTVYAMGWYRQAPGKERELVATINWSRGSTYYADSVKGRFTISRDNAKNTVYLQMKSLKPEDNAVYYCNAAWQYKSVEYWGQGTQVTVSS | low polyreactivity
36 | QVQLVESGGGLVQAGGSLRLSCAASGSIFYLYAMGWYRQAPGKERELVATISTGSGRTYYADSVKGRFTISRDNAKNTVYLQMNSLKPEDTAVYYCAASRTLRKHRYEYWGQGTEVTVSS | high polyreactivity
37 | QVHLVESGGGLVQAGGSLRLSCAASGRTFKYNTMGWYRQAPGKERELVAVISRSGGRTYYADSVKGRFTISRDNAKNTVYFQMNSLKPEDTAVYYCAKGIPYSDPQSAYDDYWGQGTQVTVSS | high polyreactivity
38 | QVQHVESGGGLVQAGGSLRLSCAASGSTFGWYAMGWYRQAPGKERELVAAITRRGTRTYYADSVKGRFTISRDNAKNTVYLQMNSLKPEDTAVYYCNARGFPGKFGYWGQGTQVTVSS | high polyreactivity
39 | QVQLVESGGGLVQAGGSLRLSCAASGLTFTTYTMGWYRQAPGKERELVAAISSRGGSTYYADSVKGRFTISRDNAKNTVYLQMNSLKPEDTAVYYFNAPRPHRMDWGQGTQVTVSS | high polyreactivity
40 | QVQLVESGGGLVQAGGSLRLSCASSGSTFPRYAMGWYRPAPGKETELVAAISSSGRTYYADSVKGRFTISRDNAKNTVFLQMNSLKPEDTAVYYCNAPVARGEASYYWGQGTQVTVSS | high polyreactivity
41 | QVQLVESGGGLVQAGGSLRLSCAASGLTFLKYAMGWYRQAPGKERELVAAITGSGGRTYYADSVKGRFTISRDNSKNTVYLHMNSLKPEDTAVYYCAADDYFHDDYWGLGTQVTVSS | high polyreactivity
42 | QVQLVESGGGLVQEGGSLRLSCAASGFIFRGNGMGWYRQAPGKERELVAAIDSTDSKNYADSVKGRFTISRDNAKNTVYLQMNSLKPEDTAVYYCAAGVSWYGPYDYLWFYAFDYWGQGTQVTVSS | low polyreactivity
43 | QVQLVESGGGLVQAGGSLRLSCAASGFISTPYAMGWYRQAPGKERELVAAIDISGGRTYYADSVKGRFTISRDNAKNTVYLQMNSLKPEDTAVYYCAAQLVSSYYAWYRTYYYWGQGTQVTVSS | high polyreactivity
